In US20190358295A1:

Assays:
[1] = biological target: Mst1r (macrophage stimulating 1 receptor/RON kinase) on mouse erythroid progenitor cells (mouse) (UniProt Q62190); experiment: cell-based or functional assay
[2] = biological target: IL-17Ra on mouse bone marrow erythroid progenitor cells (mouse) (UniProt Q60943); experiment: cell-based or functional assay
Sequence of UniProt Q60943 (Q60943 32-864): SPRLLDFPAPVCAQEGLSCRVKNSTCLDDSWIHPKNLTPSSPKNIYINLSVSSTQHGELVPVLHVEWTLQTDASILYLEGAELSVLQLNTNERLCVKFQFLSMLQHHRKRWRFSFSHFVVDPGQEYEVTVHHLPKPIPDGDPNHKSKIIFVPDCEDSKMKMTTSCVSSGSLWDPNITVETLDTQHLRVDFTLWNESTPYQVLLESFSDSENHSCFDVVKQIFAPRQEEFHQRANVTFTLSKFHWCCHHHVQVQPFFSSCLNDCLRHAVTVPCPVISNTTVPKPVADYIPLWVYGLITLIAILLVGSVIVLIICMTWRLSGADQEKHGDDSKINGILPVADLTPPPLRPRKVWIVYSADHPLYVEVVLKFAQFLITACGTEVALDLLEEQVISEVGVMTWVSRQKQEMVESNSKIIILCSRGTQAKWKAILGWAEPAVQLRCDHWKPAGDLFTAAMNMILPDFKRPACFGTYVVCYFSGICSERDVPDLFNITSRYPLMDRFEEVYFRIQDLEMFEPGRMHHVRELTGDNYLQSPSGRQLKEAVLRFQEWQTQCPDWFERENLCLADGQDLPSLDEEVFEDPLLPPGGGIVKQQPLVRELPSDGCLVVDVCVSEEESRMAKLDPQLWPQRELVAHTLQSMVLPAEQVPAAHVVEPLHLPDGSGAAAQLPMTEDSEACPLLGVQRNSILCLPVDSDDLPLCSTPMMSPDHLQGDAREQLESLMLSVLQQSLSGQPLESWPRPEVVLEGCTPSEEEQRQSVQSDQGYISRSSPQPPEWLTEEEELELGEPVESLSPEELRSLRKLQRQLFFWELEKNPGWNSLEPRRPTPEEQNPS

Sequence of UniProt Q62190 (Q62190 24-1378): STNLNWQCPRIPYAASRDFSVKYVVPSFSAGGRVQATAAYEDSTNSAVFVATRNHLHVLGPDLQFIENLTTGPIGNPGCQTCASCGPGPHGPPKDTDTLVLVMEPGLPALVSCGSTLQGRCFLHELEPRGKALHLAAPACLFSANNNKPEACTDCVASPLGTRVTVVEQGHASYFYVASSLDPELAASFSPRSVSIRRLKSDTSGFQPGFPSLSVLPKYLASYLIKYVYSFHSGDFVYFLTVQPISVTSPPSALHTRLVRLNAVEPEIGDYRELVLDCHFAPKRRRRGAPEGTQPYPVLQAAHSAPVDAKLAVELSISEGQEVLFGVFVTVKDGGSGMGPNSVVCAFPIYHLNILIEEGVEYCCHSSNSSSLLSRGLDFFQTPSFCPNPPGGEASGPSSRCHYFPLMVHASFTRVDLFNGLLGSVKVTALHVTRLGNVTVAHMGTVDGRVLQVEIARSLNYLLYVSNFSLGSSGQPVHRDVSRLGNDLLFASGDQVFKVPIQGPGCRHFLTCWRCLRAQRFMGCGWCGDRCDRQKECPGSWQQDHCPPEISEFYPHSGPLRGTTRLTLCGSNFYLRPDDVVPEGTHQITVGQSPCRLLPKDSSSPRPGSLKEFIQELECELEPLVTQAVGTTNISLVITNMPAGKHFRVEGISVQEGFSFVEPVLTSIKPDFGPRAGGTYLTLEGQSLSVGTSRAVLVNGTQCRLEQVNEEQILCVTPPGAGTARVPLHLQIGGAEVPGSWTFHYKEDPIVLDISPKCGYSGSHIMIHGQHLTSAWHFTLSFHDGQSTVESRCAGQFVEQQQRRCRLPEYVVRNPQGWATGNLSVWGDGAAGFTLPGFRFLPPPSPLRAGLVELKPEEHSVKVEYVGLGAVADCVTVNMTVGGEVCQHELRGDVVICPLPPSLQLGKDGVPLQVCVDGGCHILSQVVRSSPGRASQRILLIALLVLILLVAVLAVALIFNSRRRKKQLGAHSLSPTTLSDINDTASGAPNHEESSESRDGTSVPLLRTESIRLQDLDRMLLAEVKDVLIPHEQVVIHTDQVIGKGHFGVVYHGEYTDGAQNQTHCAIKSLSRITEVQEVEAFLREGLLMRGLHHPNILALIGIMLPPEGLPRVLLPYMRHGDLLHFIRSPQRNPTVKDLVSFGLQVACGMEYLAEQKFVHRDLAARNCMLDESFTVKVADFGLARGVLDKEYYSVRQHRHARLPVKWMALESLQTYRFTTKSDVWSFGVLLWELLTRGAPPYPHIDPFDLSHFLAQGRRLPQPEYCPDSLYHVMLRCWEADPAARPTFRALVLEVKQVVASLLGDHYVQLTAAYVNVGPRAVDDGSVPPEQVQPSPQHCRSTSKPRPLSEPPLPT

Row | FL CFU-e colony formation at mildly elevated Epo (50 mU/ml) [1] | adult BM CFU-e colony formation at lower Epo (50 mU/ml) [2] | adult BM CFU-e colony formation at maximal levels of Epo [2] | Molecule
1 | > 2 fold |  |  | MSP/MST1 (R&D systems; CAT #6244-MS-025) (from UniProt P26928 19-716) (ligand)
2 |  | 4 fold | 50% | Recombinant Murine IL17 (IL-17A) (PeproTech) (ligand, UniProt Q62386 26-158, looked up) AAIIPQSSACPNTEAKDFLQNVKVNLKVFNSLGAKVSSRRPSDYLNRSTSPWTLHRNEDPDRYPSVIWEAQCRHQRCVNAEGKLDHHMNSVLIQQEILVLKREPESCPFTFRVEKMLVGVGCTCVASIVRQAA
